Results on two molecules are retold here after patent US20130196336A1.

Assay [1] concerns the target serum IgA of the coeliac disease patients that displayed reactivity towards both TG2 and TG6 (Example 5). Description: anti-TG2 IgA ELISA after preincubation of sera with 22.4 µg/ml soluble TG6. A general note: In an ELISA, binding on a coated surface is turned into a signal by an enzyme label.
Assay [2] concerns the target serum IgA of the gluten ataxia with enteropathy patients that displayed reactivity towards both TG2 and TG6 (Example 5). Described as above.
For assay [3], the target named is serum IgA of the coeliac disease patients that displayed reactivity towards both TG2 and TG6 (Example 5). Description: anti-TG6 IgA ELISA after preincubation of sera with 22.4 µg/ml soluble TG6.
For assay [4], the target named is serum IgA of the gluten ataxia with enteropathy patients that displayed reactivity towards both TG2 and TG6 (Example 5). The description is as above.
Assay [5] has as its target serum IgA of gluten ataxia with enteropathy patient GAE 16. Description: inhibition ELISA: serum preincubated with soluble TG6, then TG2-coated plate, IgA detection.
Assay [6] concerns the target serum IgA of the coeliac disease patients that displayed reactivity towards both TG2 and TG6 (Example 5). In words: anti-TG2 IgA ELISA after preincubation of sera with 22.4 µg/ml soluble TG2.
The target in assay [7] is serum IgA of the gluten ataxia with enteropathy patients that displayed reactivity towards both TG2 and TG6 (Example 5). The description is as above.
Assay [8] deals with serum IgA of the coeliac disease patients that displayed reactivity towards both TG2 and TG6 (Example 5). In words: anti-TG6 IgA ELISA after preincubation of sera with 22.4 µg/ml soluble TG2.
The target of assay [9] is serum IgA of the gluten ataxia with enteropathy patients that displayed reactivity towards both TG2 and TG6 (Example 5). Described as above.
The target of assay [10] is serum IgA of gluten ataxia with enteropathy patient GAE 16. In words: inhibition ELISA: serum preincubated with soluble TG2, then TG2-coated plate, IgA detection.
Assay [11] deals with serum IgA of coeliac disease patient CD1. In words: inhibition ELISA: serum preincubated with 50 µg/ml soluble TG2, then TG2-coated plate, IgA detection.
For assay [12], the target named is serum IgG of coeliac disease patient CD1. Description: inhibition ELISA: serum preincubated with 50 µg/ml soluble TG2, then TG2-coated plate, IgG detection.

B1: recombinant human transglutaminase 6 with C-terminal hexahistidine-tag (enzyme, UniProt O95932 1-706, looked up, part only)
chain: MAGIRVTKVDWQRSRNGAAHHTQEYPCPELVVRRGQSFSLTLELSRALDCEEILIFTMETGPRASEALHTKAVFQTSELERGEGWTAAREAQMEKTLTVSLASPPSAVIGRYLLSIRLSSHRKHSNRRLGEFVLLFNPWCAEDDVFLASEEERQEYVLSDSGIIFRGVEKHIRAQGWNYGQFEEDILNICLSILDRSPGHQNNPATDVSCRHNPIYVTRVISAMVNSNNDRGVVQGQWQGKYGGGTSPLHWRGSVAILQKWLKGRYKPVKYGQCWVFAGVLCTVLRCLGIATRVVSNFNSAHDTDQNLSVDKYVDSFGRTLEDLTEDSMWNFHVWNESWFARQDLGPSYNGWQVLDATPQEESEGVFRCGPASVTAIREGDVHLAHDGPFVFAEVNADYITWLWHEDESRERVYSNTKKIGRCISTKAVGSDSRVDITDLYKYPEGSRKERQVYSKAVNRLFGVEASGRRIWIRRAGGRCLWRDDLLEPATKPSIAGKFKVLEPPMLGHDLRLALCLANLTSRAQRVRVNLSGATILYTRKPVAEILHESHAVRLGPQEEKRIPITISYSKYKEDLTEDKKILLAAMCLVTKGEKLLVEKDITLEDFITIKVLGPAMVGVAVTVEVTVVNPLIERVKDCALMVEGSGLLQEQLSIDVPTLEPQERASVQFDITPSKSGPRQLQVDLVSPHFPDIKGFVIVHVATAK
modifications: full-length C-terminal His6 tag
For the molecule B1, the mean inhibition (%) in assay [1] was 1%; in assay [2], 15%; in assay [3] it was 71%; in assay [4] it was 61%. Also, the percent blocked in assay [5] was 37%.

B2: recombinant human transglutaminase 2 with N-terminal hexahistidine-tag (enzyme)
chain: HHHHHHAEELVLERCDLELETNGRDHHTADLCREKLVVRRGQPFWLTLHFEGRNYEASVDSLTFSVVTGPAPSQEAGTKARFPLRDAVEEGDWTATVVDQQDCTLSLQLTTPANAPIGLYRLSLEASTGYQGSSFVLGHFILLFNAWCPADAVYLDSEEERQEYVLTQQGFIYQGSAKFIKNIPWNFGQFEDGILDICLILLDVNPKFLKNAGRDCSRRSSPVYVGRVVSGMVNCNDDQGVLLGRWDNNYGDGVSPMSWIGSVDILRRWKNHGCQRVKYGQCWVFAAVACTVLRCLGIPTRVVTNYNSAHDQNSNLLIEYFRNEFGEIQGDKSEMIWNFHCWVESWMTRPDLQPGYEGWQALDPTPQEKSEGTYCCGPVPVRAIKEGDLSTKYDAPFVFAEVNADVVDWIQQDDGSVHKSINRSLIVGLKISTKSVGRDEREDITHTYKYPEGSSEEREAFTRANHLNKLAEKEETGMAMRIRVGQSMNMGSDFDVFAHITNNTAEEYVCRLLLCARTVSYNGILGPECGTKYLLNLNLEPFSEKSVPLCILYEKYRDCLTESNLIKVRALLVEPVINSYLLAERDLYLENPEIKIRILGEPKQKRKLVAEVSLQNPLPVALEGCTFTVEGAGLTEEQKTVEIPDPVEAGEEVKVRMDLLPLHMGLHKLVVNFESDKLKAVKGFRNVIIGPA
With B2, the mean inhibition (%) in assay [6] stood at 37%; in [7], 55%; in assay [8], 18%; in assay [9], 14%. Also, the percent blocked in assay [10] was 6%; in [11], 52%; in assay [12], 93%.
